The values below come from patent publication US20250340652A1 (CHENGDU DI AO PHARMACEUTICAL GROUP, published 2025).

As a reminder, the EC50 is the concentration needed to bring the measured effect to its halfway point. High values mean weaker potency, low ones greater potency.

The assay has as its target T1, CC1H, major antigenic region of PLA2R (human, UniProt Q13018 21-367).
T1 construct: Secreted from CHO-S cells, purified on Ni column; also called CCIh
Kind of assay: indirect ELISA, CC1h coated at 2 ug/mL, anti-human IgG Fc HRP. How it is done: 30 μL of CC1h (2 μg/mL, diluted with 1*PBS) was added to the reaction wells of the ELISA plate, and the plate was sealed and incubated at 4° C. overnight. The plate was washed with PBST for 3 times, and the liquid in the wells was discarded. 5% PBSM was added to block the ELISA plate at room temperature for 2 hours. The plate was washed with PBST for 3 times by adding 30 μL of Abs (diluted with 1*PBS) to each well of the ELISA plate, and the plate was incubated at room temperature for 60 min. The plate was washed with PBST for 3 times, 30 μL of anti-human IgG Fc HRP (diluted with 1% PBSM at a ratio of 1:8000) was added to each well, and incubated at room temperature for 60 min. TMB was added and the reaction was stopped with 2M blocking solution and the OD value was detected at 450 nm. Recombinant Ipilimumab (Sanyou Biopharmaceuticals Co., Ltd.) was used as a negative control. The test results were illustrated in Table 2 as well as FIG. 4 and FIG. 5.
For orientation: An ELISA detects its analyte on a solid surface through an enzyme-linked reagent.

B1: B20 (antibody, human IgG4, kappa, V domains shown)
VH: QVQLLESGPGLVKPSETLSLTCTVSGDSISNYFWSWIRQSPGKGLEWIGYIHYSGTVSYNPSLRSRVTISIDTSKNQFSLKLSSVTAADTAVYYCARRGRIAAAGTGYYYYGMDVWGQGTTVTVSS
VL: EIVMTQSPATLSLSPGERATLSCRASQSVSNYLAWYQQKPGQAPRLLIYGASSRATGIPDRFSGSGSGTDFTLTISRLEPEDFAVYYCQQYGSSLWTFGQGTKVEIKR
notes: also called P59383
With B1, the EC50 was 5.36 ng/mL.

B2: A26 (antibody, human IgG4, kappa, V domains shown)
VH: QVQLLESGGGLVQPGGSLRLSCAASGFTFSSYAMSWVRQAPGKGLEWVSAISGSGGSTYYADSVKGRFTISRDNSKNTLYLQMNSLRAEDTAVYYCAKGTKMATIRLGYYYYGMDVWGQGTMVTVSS
VL: DIVMTQSPLSLPVTPGEPASISCRSSQSLLHSNGRNYLDWYLQKPGQSPQLLIYLGSNRASGVSDRFSASGSGTDFTLQISRVEAEDVGIYYCMQALQTPWTFGQGTKVEVKR
notes: also called P59372
For B2, a half-maximal response (EC50) required 16 ng/mL.

B3: B53 (antibody, human IgG4, kappa, V domains shown)
VH: EVQLVETGGGVVQPGRSLRLSCAASGFTFSSYAMHWVRQAPGKGLEWVAVISYDGSNKYYADSVKGRFTISRDNSKNTLYLQMNSLRAEDTAVYYCARNRYGATDYWGQGTLVTVSS
VL: NIQLTQSPSSLSASVGDRVTITCRASQGINSWLAWYQQKPGKAPKLLIYAASTLQSGVPSRFSGSGSGTDFTLTINSLQPEDFATYYCQQLNSFPFTFGPGTKVHIKR
notes: also called P59387
B3: the EC50 worked out at 7.67 ng/mL.

B4: B117 (antibody, human IgG4, kappa, V domains shown)
VH: EVQLLESGGGLVQPGGSLRLSCAASGFTFSSYSMNWVRQAPGKGLEWVSYISSSSSTIYYADSVKGRFTISRDNAKNSLYLQMNSLRDEDTAVYYCARDRTLGYWGQGTLVTVSS
VL: NIQLTQSPSSVSASVGDRVTISCRASQGIGRWLAWYQQKPGKAPKLLIYAASNLQSGVPSRFSGSGSGTDFTLTISSLQPEDFATYYCQQANSFPRTFGPGTKVDIKR
notes: also called P59394
B4 returned an EC50 of 7.17 ng/mL. This EC50 and that of the molecule before are within 1.5-fold of each other.

B5: A8 (antibody, human IgG4, kappa, V domains shown)
VH: QVQLVQSGAEVKKPGSSVKVSCKASGGTFSSYAISWVRQAPGQGLEWMGGIIPIFGTANYAQKFQGRVTMTRDTSTSTVYMELSSLRSEDTAVYYCARDSDFWSGYSSMDVWGQGTTVTVSS
VL: DIVMTQSPLSLPVTLGQPASISCRSSQSLVHSDGNTYLNWFQQRPGQSPRRLIYKVSNRDSGVPDRFSGSGSGTDFTLKISRVEAEDVGVYYCMQGTQWPDTFGQGTKLEIKR
notes: also called P59367
The molecule B5 yielded an EC50 of 4.81 ng/mL.

B6: A23 (antibody, human IgG4, kappa, V domains shown)
VH: QVQLVQSGAEVKKPGSSVKVSCKASGGTFSSYAISWVRQAPGQGLEWMGGIIPIFGTANYAQKFQGRVTITADESTSTAYMELSSLRSEDTAVYYCARGGGGRGMTSDWGQGTLVTVSS
VL: NIQLTQSPSSLSASVGDRVTITCRASQDISNYLAWFQQKPGKAPKSLIYAASSLQSGVPSRFSGSWSGTDFTLTISSLQPEDIATYYCQQYKRYPFIFGQGTKLEIKR
notes: also called P59371
B6: the EC50 was 27.6 ng/mL.

B7: B83 (antibody, V domains shown)
VH: EVQLLESGGGLVQPGGSLRLSCAASGFTFSSYAMSWVRQAPGKGLEWVSAISGSGGRTYYADSVKGRFTISRDNSKNTLYLQMNSLRAEDTAVYYCARVLQYSGTDDLDVWGRGTLVTVSS
VL: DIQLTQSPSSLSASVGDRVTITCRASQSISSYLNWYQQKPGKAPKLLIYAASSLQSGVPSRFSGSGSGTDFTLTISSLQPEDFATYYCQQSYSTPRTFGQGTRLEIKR
notes: also called P59389
As for B7, the 50% effective concentration (EC50) is 7.71 ng/mL.

B8: A44 (antibody, human IgG4, kappa, V domains shown)
VH: QVQLQESGPGLVKPSQTLSLTCTVSGGSISSGGYYWSWIRQHPGKGLEWIGYIYYSGSTYYNPSLKSRVTISVDTSKNQFSLKLSSVTAADTAVYYCARWGRGGSSWRFDIWGQGTMVTVSS
VL: AIQMTQSPSSLSASVGDRVTITCRASQALTYTLAWYQQKPGKAPRLLIHDASSLESGVPSRFSGSGSGTDFTLTITSLQPEDFATYYCQQFRSYPLTFGGGTKVEIKR
notes: also called P59373
As to B8, the EC50 came to 4.79 ng/mL.

B9: B307 (antibody, human IgG4, kappa, V domains shown)
VH: QLQLQESGPGLVKPSQTLSLTCTVSGGSISSGGYYWSWIRQHPGKGLEWIGYIYYSGSTYYNPSLKSRVTISVDTSKNQFSLKLSSVTAADTAVYYCARMGRIAASNYYGMDVWGQGTTVTVSS
VL: DIQLTQSPSFLSASVGDRVTITCRASQGISSQLAWYQQEPGKAPKLLIYAASTLQSGVPSRFSGSGSGTEFTLTISSLQPEDFATYYCQQVNAYPLTFGPGTKVDIKR
notes: also called P59399
B9 showed an EC50 of 5.74 ng/mL.

B10: B24 (antibody, human IgG4, kappa, V domains shown)
VH: EVQLVETGGGLVKPGGSLRLSCAASGFTFSSYSMNWVRQAPGKGLEWVSSISSSSSYIYYADSVKGRFTISRDNAKNSLYLQMNSLRAEDTAVYYCARGRRRDFDYWGQGTLVTVSS
VL: DIQMTQSPSSLPASVGDRVTITCRASQGIGTFLAWYQQHLGKAPKLLISASSTVQRGVPSRFSGSGSGTEFTLTINSLQPEDFATYYCQQLNNYPRTFGQGTKVEIKR
notes: also called P59384
Take B10: the EC50 was found to be 7.03 ng/mL.

B11: B201 (antibody, human IgG4, kappa, V domains shown)
VH: EVQLVESGGGLVQPGGSLRLSCAASGFTFSSYAMHWVRQAPGKGLEWVSAISGSGDSTYYADSVKGRFSISRDNSKNTLYLQMNSLRAEDTAVYYCAKGSRRSGFNLFDYWGQGTLVTVSS
VL: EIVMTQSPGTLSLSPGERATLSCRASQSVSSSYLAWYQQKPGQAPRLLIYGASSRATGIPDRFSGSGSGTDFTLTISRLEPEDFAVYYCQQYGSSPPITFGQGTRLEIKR
notes: also called P59398
B11 gave an EC50 of 8.88 ng/mL.

B12: B123 (antibody, human IgG4, kappa, V domains shown)
VH: QVQLQQWGAGLLKPSQTLSLTCTVSGGSISSGGYYWSWIRQHPGKGLEWIGYIYYSGSTYYNPSLKSRVTISVDTSKNQFSLKLSSVTAADTAVYYCARWDRVREGGRFSNAFDIWGQGTMVTVSS
VL: NIQLTQSPSSLSASVGDRVTITCRASQGISTYLAWYQQKPGLAPKLLIYGASTLQSGVPSKFSGFGSGRDFTLTISSLQPEDIATYYCQQLNTYPPTFGQGTKLEIKR
notes: also called P59395
B12 had an EC50 of 8.09 ng/mL.

B13: A382 (antibody, human IgG4, kappa, V domains shown)
VH: QVQLVQSGAEVKKPGASVKVSCKASGYTFTSYAMHWVRQAPGQRLEWMGWINAGNGNTKYSQKFQGRVTITRDTSASTAYMELSSLRSEDTAVYYCATSKSVWNFDYWGQGTLVTVSS
VL: EIVLTQSPATLSLSPGERATLSCRASQGISSYLAWYQQKPGQAPRLLIYDASNRATGIPARFSGSGSGTDFTLTISNLEPEDFAVYYCQQRKNWPLTFGGGSKVEIKR
notes: also called P59381
B13 yielded an EC50 of 13.2 ng/mL.

B14: B114 (antibody, human IgG4, kappa, V domains shown)
VH: EVQLLESGGGLVQPGGSLKLSCAASGFTFSGYAMHWVRQAPGKGLEWVAVISYDGSNKYYADSVKGRFTISRDNSKNTLYLQMNSLRAEDTAVYYCARGRGRGVFDYWGQGTLVTVSS
VL: EIVLTQSPGTLSLSPGERATLSCRASQSVSKYLAWYQQKPGQAPRLLIYDVSNRATGIPARFSGSGSGTDFTLTISSLEPEDFAVYYCQQRRSWPLTFGGGTKVEIRR
notes: also called P59393
Molecule B14 returned an EC50 of 6.52 ng/mL.

B15: B67 (antibody, human IgG4, kappa, V domains shown)
VH: QITLKESGPGLVKPSGTLSLTCAVSGGSISSSNWWSWVRQPPGKGLEWIGEIYHSGSTNYNPSLKSRVTISVDKSKNQFSLKLSSVTAADTAVYYCARDDGWRYGSVYYYYMDVWGKGTTVTVSS
VL: DIQLTQSPSSLSASVGDRVTITCRASQSIDDHLNWYQQKPGKVPKLLISSASTLQSGAPSRFSGSGYGTDFTLTISSLQVEDFATYYCQQSYSPPQTFGQGTKVEIKR
notes: also called P59388
Regarding B15, the EC50 was 5.02 ng/mL. The EC50 values of the last two molecules are within 1.5-fold of each other.

B16: A21 (antibody, human IgG4, kappa, V domains shown)
VH: EVHLVESGPELVRPGASVTLSCKASGYTFTDYEMHWVKQTPVHGLEWIGAIDPETGGTAYNQKFKGKATLTADKSSSTAYMELRSLTSEDSAVYYCTTTYGNYWYFDVWGAGTLVTVSS
VL: DIQLTQSPSSVSASVGDRVTITCRASQNIENWLAWYQQKPGKAPKLLIYATSRLENDVPSRFSGSRSGTEFILTISSLQPEDFATYYCHQANGFPWTFGPGTKVDIKR
notes: also called P59369
B16: a half-maximal effect (EC50) was put at 8.49 ng/mL.

B17: A67 (antibody, human IgG4, kappa, V domains shown)
VH: QVQLVQSGGGVVQPGRSLRLPCAASGFTFSNYAMHWVRQAPGKGLEWVAVISYDGSKKYYADSVKGRFTISRDNSKNTLYLQVNSLRAEDTAVYYCATGYSSPWYGMDVWGQGTTVTVSS
VL: NIQMTQSPSSLSASVGDRITITCRASQSVNSYVNWYQQTPGQAPKLLIYAASSVHNGVPVRFSGSRSGTEFILTISSLQPEDFVTYFCQQSFTSPWTFGQGTKLEMKR
notes: also called P59376
As for B17, the EC50 amounted to 6.41 ng/mL.

B18: A378 (antibody, human IgG4, kappa, V domains shown)
VH: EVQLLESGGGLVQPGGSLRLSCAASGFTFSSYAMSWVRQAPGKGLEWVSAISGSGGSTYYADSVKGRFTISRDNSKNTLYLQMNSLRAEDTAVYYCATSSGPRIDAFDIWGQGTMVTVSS
VL: NIQMTQSPSSLTASVGDRITITCRASQGIRNSLAWYQQKPGTAPKLLVSAASKLQTGVPSRFSGSGSGTDYTLTISSLQTEDFATYYCQQYYGTPPTFGQGTKLEIKR
notes: also called P59380
The molecule B18 returned an EC50 of 14.1 ng/mL. Compared with the last molecule, the EC50 is about 2.2-fold higher.

B19: B29 (antibody, human IgG4, kappa, V domains shown)
VH: QVQLVQSGAEVKKPGSSVKVSCKASGDTFSSFAISWVRQAPGQGLEWMGTIIPLFTTPNYAQKFQGRVTITADESTRTAYMELSSLRSEDTAVYYCARGPERIAAAGYYYYYGMDVWGQGTTVTVSS
VL: EIVMTQSPGTLSLSPGQRATLSCRASQSVSSSSLAWYQQKPGQAPRLLIHGASSRATGIPDRFSGSGSGTDFTLTISRLEPEDFAVYYCQQYGTSWTFGQGTKVEIKR
notes: also called P59385
In turn, B19 had an EC50 of 3.85 ng/mL.

B20: B16 (antibody, human IgG4, kappa, V domains shown)
VH: QVQLVQSGGGLVQPGGSLRLSCAASGFTFSSYAMSWVRQAPGKGLEWVSAISGSGGSTYYADSVKGRFTISRDNPKNTLFLQMTSLRSEDTAMYYCARSYGNYFTYWGQGTLVTVSS
VL: EIVLTQSPATLSLSPGERATLSCRASQSVSSYLAWYQQKPGQAPRLLIYDASNRATGIPARFSGSGSGTDFTLTISSLEPEDFAVYYCQQRSNWPPELTFGGGTKVEIKR
notes: also called P59382
As for B20, it took 6.67 ng/mL to reach a half-maximal effect (EC50).

B21: B109 (antibody, human IgG4, kappa, V domains shown)
VH: EVQLLESGGGLVKPGGSLRLSCAASGFTFSSYSMNWVRQAPGKGLEWVSSISSSSSYIYYADSVKGRFTISRDNAKNSLYLQMNSLRDGDTAIYYCVRRLWEAPGIGPFDVWGHGTMVTVSS
VL: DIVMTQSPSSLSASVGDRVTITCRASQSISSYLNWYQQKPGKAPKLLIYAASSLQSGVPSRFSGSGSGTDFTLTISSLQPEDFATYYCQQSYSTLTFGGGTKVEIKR
notes: also called P59392
Molecule B21 displayed an EC50 of 6.38 ng/mL.
